What is called Kd is the equilibrium constant for the complex coming apart. A low value points to a tighter complex.

The source of these data is patent US20240294646A1.

In assay [1] the target is Soluble FcγRIIb extracellular domain with C-terminal 10xHis tag (UniProt P31994). In words: SPR Protocol 2, OAA captured on HER2 chip, receptor as analyte; KD(WT v16463)/KD(variant).
Assay [2] addresses Soluble FcγRIIaR extracellular domain with C-terminal 10xHis tag (UniProt P12318). Described as above.
Assay [3] concerns the target Soluble FcγRIIb extracellular domain with C-terminal 10xHis tag (UniProt P31994). In words: SPR Protocol 2; IIb selectivity relative to control v27294.
Assay [4] shares this target. In words: SPR Protocol 2; ratio IIb-Fold/IIaR-Fold (FcγRIIb against FcγRIIaR).
Assay [5] has the same target. In words: SPR Protocol 2; IIb-Fold relative to control v27294.
The target of assay [6] is Recombinant human C1q (C1740, Sigma Aldrich) (human) (UniProt P02745). In words: ELISA; antibody coated on plate, human C1q added; signal as % of wild-type.
Assay [7] deals with FcγRIIaR (UniProt P12318). In words: SPR; trastuzumab FSA variant against soluble FcγRIIaR; KD ratio to wild-type FSA v21653.
Assay [8] addresses FcγRIIb (UniProt P31994). In words: SPR; ratio of IIb-fold to IIaR-fold, FcγRIIaR as comparison receptor. A general note: Surface plasmon resonance follows binding to a sensor surface in real time, without labels.
For assay [9], the target named is FcγRIIb (UniProt P31994). In words: SPR; trastuzumab FSA variant against soluble FcγRIIb; KD ratio to wild-type FSA v21653.
The target of assay [10] is Soluble FcγRIIb extracellular domain with C-terminal 10xHis tag (UniProt P31994). In words: SPR (Biacore 4000), antibody captured on immobilised HER2, receptor as analyte.
The target in assay [11] is Biotinylated FcγRIIb extracellular domain-Fc fusion (human IgG1 Fc with L234A_L235A_D265S) (human) (UniProt P31994). In words: competition electrochemiluminescence, antibody on HER2-coated plate, biotinylated FcγRIIb-Fc; competitor FcγRIIaR-Fc at 10x.
For assay [12], the target named is Soluble FcγRIIb extracellular domain with C-terminal 10xHis tag (UniProt P31994). In words: SPR, antibody captured on immobilised HER2, soluble receptor as analyte.
Assay [13] addresses Soluble FcγRIIaR extracellular domain with C-terminal 10xHis tag (UniProt P12318). The assay is described as above.
Assay [14] deals with Soluble FcγRIIb extracellular domain with C-terminal 10xHis tag (UniProt P31994). In words: SPR; fold change in affinity over WT v16463.
Assay [15] has as its target Soluble FcγRIIaR extracellular domain with C-terminal 10xHis tag (UniProt P12318). In words: SPR; fold change in affinity over WT v16463.
Assay [16] addresses Soluble FcγRIIb extracellular domain with C-terminal 10xHis tag (UniProt P31994). In words: SPR; IIb-Fold / IIaR-Fold.
The target of assay [17] is Soluble FcγRIIb extracellular domain with C-terminal 10×His tag (UniProt P31994). In words: SPR (Protocol 2): full-size antibody captured on immobilised HER2, soluble receptor as analyte; fold over wild-type.
The target in assay [18] is Soluble FcγRIIaR extracellular domain with C-terminal 10×His tag (UniProt P12318). The assay is described as above.
The target of assay [19] is Soluble FcγRIIb extracellular domain with C-terminal 10×His tag (UniProt P31994). In words: SPR (Protocol 2); ratio of FcγRIIb fold to FcγRIIaR fold over wild-type.
In assay [20] the target is Soluble FcγRIIb extracellular domain with C-terminal 10xHis tag (UniProt P31994). In words: SPR, antibody captured on HER2, receptor as analyte.
Assay [21] has as its target Soluble FcγRIIaR extracellular domain with C-terminal 10xHis tag (UniProt P12318). The description is as above.
The target of assay [22] is Soluble FcγRIIb extracellular domain with C-terminal 10xHis tag (UniProt P31994). In words: SPR; ratio of the fold for FcγRIIb to the fold for FcγRIIaR.
The target in assay [23] is Biotinylated FcγRIIb extracellular domain-Fc fusion (human IgG1 Fc L234A_L235A_D265S) (human) (UniProt P31994). In words: competition electrochemiluminescence (MSD), antibody on HER2-coated plate, biotinylated FcγRIIb-Fc; competitor FcγRIIaR-Fc.
The target in another assay is FcγRIIIaV (UniProt P08637). In words: SPR (ProteOn XPR36), antibody captured on immobilized HER2, FcγR as analyte, equilibrium fit.
For assay [24], the target named is FcγRIIaR (UniProt P12318). Described as above.
Another assay has as its target FcγRIIaH (UniProt P12318). The assay is described as above.
For the next assay, the target named is FcγRI (UniProt P12314). The assay is described as above.
For assay [25], the target named is FcγRIIb (UniProt P31994). The assay is described as above.
For assay [26], the target named is FcγRIIaR (UniProt P12318). In words: SPR (Protocol 2, Biacore 4000), antibody captured on immobilised HER2, FcγR as analyte.
Assay [27] deals with Soluble FcγRIIb extracellular domain with C-terminal 10×His tag (UniProt P31994). In words: SPR; ratio of IIb-Fold to IIaR-Fold (FcγRIIb against FcγRIIaR).
The target is the same in assay [28]. In words: SPR; KD ratio against wild-type v16463.
Assay [29] concerns the target Soluble FcγRIIaR extracellular domain with C-terminal 10×His tag (UniProt P12318). In words: SPR; KD ratio against wild-type v16463.
The target in assay [30] is Soluble FcγRIIb extracellular domain with C-terminal 10×His tag (UniProt P31994). In words: SPR, antibody captured on HER2 chip, receptor as analyte.
The target in assay [31] is Soluble FcγRIIaR extracellular domain with C-terminal 10×His tag (UniProt P12318). Described as above.

“Variant 26747 (A_E272V_strat2), one-armed trastuzumab antibody with heterodimeric IgG1 Fc” came in with an IIb-fold (fold change in affinity over wild-type) in assay [1] of 89.7 fold. Besides, the IIaR-fold (fold change in affinity over wild-type) in assay [2] came to 6 fold. The same substance yielded an IIb Selectivity Improvement wrt Control in assay [3] of 1.1 fold. The IIb Selectivity (IIb-Fold/IIaR-Fold) in assay [4] was 14.9 fold. Also, the IIb-Fold wrt Control in assay [5] came out at 1 fold.
Consider “Variant 32292, trastuzumab full-size antibody (chain A L235D_strat2; chain B D329*I_I332L-strat1)”, for which, in assay [6], the C1q Binding (% WT) came to 2 % WT. Besides, the IIaR-fold (fold change in affinity over wild-type) with FcγRIIaR [7] turned out to be 6 fold. Also, the IIb Selectivity (IIb-Fold/IIaR-Fold) with FcγRIIb [8] worked out at 78 fold. Also, in the assay with FcγRIIb [9], the IIb-fold (fold change in affinity over wild-type) came to 451 fold.
In [10], “v27362, strat3_control (A_G236N_G237A B_G236D_G237F_S239D_S267V_H268D) (antibody)” displayed a Kd of 150 nM. In other words, the sub-micromolar range.
“v12, IIb-specific comparator with symmetrical E233D_G237D_P238D_H268D_P271G_A330R (Mimoto et al. 2013) (antibody)”: the ELISA (% of non-competed FcγRIIb signal in presence of 10x FcγRIIa) in assay [11] came to 100%. In addition, the figures for the Kd in [12] and in assay [13] were 13 nM and 220 nM, respectively. Moreover, in assay [14], the IIb-Fold came out at 112 fold. In addition, the IIaR-fold in assay [15] came to 1.4 fold. This substance also returned an IIb Selectivity in [16] of 80.5.
With “Variant 26751 (A_E272W_strat2), one-armed trastuzumab antibody with heterodimeric IgG1 Fc”, in assay [1], the IIb-fold (fold change in affinity over wild-type) was found to be 60.1 fold. In assay [2], this substance yielded an IIaR-fold (fold change in affinity over wild-type) of 5.4 fold. Moreover, in assay [3], the IIb Selectivity Improvement wrt Control stood at 0.8 fold. Besides, the IIb Selectivity (IIb-Fold/IIaR-Fold) in assay [4] turned out to be 11.2 fold. Further, the IIb-Fold wrt Control in [5] is 0.6 fold.
In [17], “Variant 22128, full-size antibody (FSA) format of v19585 (trastuzumab, heterodimeric IgG1 Fc; A: L234F_G236N_H268Q_K274Q_A327G_A330K_P331S / B: L234F_G236D_S239D_V266L_S267A_H268D_K274Q_A327G_A330S_P331S)” returned an IIb-fold (fold change in affinity over wild-type) of 37.4 fold. The substance further had an IIaR-fold (fold change in affinity over wild-type) in [18] of 3.3 fold. The IIb/IIaR Selectivity (IIb-Fold/IIaR-Fold) in assay [19] came to 11.3.
In [20], “v12 (IIb-specific comparator, symmetrical E233D_G237D_P238D_H268D_P271G_A330R) (antibody)” came in with an IIb-Fold (affinity fold over WT v16463) of 112 fold and a Kd of 13 nM. Also, in assay [21], the IIaR-Fold (affinity fold over WT v16463) was 1.4 fold and the Kd was found to be 220 nM. The IIb Selectivity (IIb-Fold/IIaR-Fold) in assay [22] came to 80.5. In [23], the ELISA (% of non-competed FcγRIIb signal in presence of 10x FcγRIIa) was 100%.
For the substance “Variant 31509 (trastuzumab full-size antibody, Azymetric heterodimeric IgG1 Fc, no CH2 mutations; parental scaffold)”, the Kd stood at 1190 nM with FcγRIIIaV; 1520 nM in the assay with FcγRIIaR [24]; 1150 nM with FcγRIIaH; 0.067 nM in the assay with FcγRI; 4200 nM with FcγRIIb [25].
The substance “Variant 16463, wild-type one-armed antibody (Scaffold 2: one trastuzumab Fab and heterodimeric IgG1 Fc)” displayed a Kd with FcγRIIaR [26] of 360 nM.
In the case of “Variant 31522 (trastuzumab full-size antibody, electrostatic steering heterodimeric IgG1 Fc, no CH2 mutations; parental scaffold)”, the Kd with FcγRIIIaV was found to be 1600 nM; with FcγRIIaR [24], 2090 nM; in the assay with FcγRIIaH, 1530 nM; with FcγRI it was 0.071 nM; with FcγRIIb [25], 6340 nM.
With “Variant 16463, wild-type one-armed trastuzumab antibody with heterodimeric IgG1 Fc (Scaffold 2)”, the IIb Selectivity (IIb-Fold/IIaR-Fold) in assay [27] was 1 fold. The IIb-Fold in assay [28] amounted to 1 fold. Besides, the IIaR-fold in [29] was found to be 1 fold. Also, the Kd in [30] came to 1400 nM; in assay [31], 310 nM.
In assay [20], “Variant 27293 (strat1_control; Launching Module 1: A_G236N_G237A B_G236D_G237F_S239D_S267V_H268D_Template_1) (antibody)” had an IIb-Fold (affinity fold over WT v16463) of 415 fold, an IIb-Fold wrt Control (v27293) of 1 fold and a Kd of 3.5 nM. In addition, in [21], the IIaR-Fold (affinity fold over WT v16463) was determined as 35.2 fold, the IIaR-Fold wrt Control (v27293) was found to be 1 fold and the Kd was 8.8 nM. For the same substance, in assay [22], the IIb Selectivity (IIb-Fold/IIaR-Fold) turned out to be 11.8 and the IIb Selectivity Fold wrt Control (v27293) stood at 1 fold. The ELISA (% of non-competed FcγRIIb signal in presence of 10x FcγRIIa) in [23] came out at 70.8%.
“Variant 26752 (A_E272Y_strat2), one-armed trastuzumab antibody with heterodimeric IgG1 Fc” had an IIb-fold (fold change in affinity over wild-type) in assay [1] of 79.8 fold. This substance displayed an IIaR-fold (fold change in affinity over wild-type) in assay [2] of 4.6 fold. The substance further showed an IIb Selectivity Improvement wrt Control in assay [3] of 1.3 fold. The IIb Selectivity (IIb-Fold/IIaR-Fold) in [4] is 17.5 fold. Moreover, in [5], the IIb-Fold wrt Control stood at 0.9 fold.
For the substance “Variant 32293, trastuzumab full-size antibody (chain A S267A_strat2; chain B D329*I_I332L-strat1)”, in [6], the C1q Binding (% WT) was determined as 2 % WT. Besides, the IIaR-fold (fold change in affinity over wild-type) with FcγRIIaR [7] is 6 fold. Also, the IIb Selectivity (IIb-Fold/IIaR-Fold) with FcγRIIb [8] was found to be 58 fold. The IIb-fold (fold change in affinity over wild-type) with FcγRIIb [9] came to 323 fold.
The like results for “Variant 32295, trastuzumab full-size antibody (chain A P329I_strat2; chain B D329*I_I332L-strat1)” were, in that order, -1 % WT, 1 fold, 82 fold and 103 fold.
